The text below walks through data of article PMC11092868, “Mapping Novel Frataxin Mitochondrial Networks Through Protein- Protein Interactions” (Research Square, 2024).

In general, stoichiometry N refers to the number of molecules, sites or subunits per partner or assembly.

The data set deals with the molecule itself. Briefly: non-reducing SDS-PAGE and immunoblot after NEM alkylation; lysis in alkylation buffer with 100 mM N-ethylmaleimide and 10 ug/mL catalase; oxidized dimers against reduced monomers; with or without beta-mercaptoethanol in Laemmli buffer.

B1: Peroxiredoxin 3, endogenous human (natural protein, UniProt P30048 62-256, looked up)
chain: APAVTQHAPYFKGTAVVNGEFKDLSLDDFKGKYLVLFFYPLDFTFVCPTEIVAFSDKANEFHDVNCEVVAVSVDSHFSHLAWINTPRKNGGLGHMNIALLSDLTKQISRDYGVLLEGSGLALRGLFIIDPNGVIKHLSVNDLPVGRSVEETLRLVKAFQYVETHGEVCPANWTPDSPTIKPSPAASKEYFQKVNQ
notes: Peroxiredoxin 3, mitochondrial, human; also called Prdx3; PRDX3; source: endogenous: A549 cells (BioID); human lymphoblast lysate fractions (co-IP); human dermal fibroblast lysate (redox blot)
Take B1: the “stoichiometry N” value is 2.

B2: Peroxiredoxin 3, endogenous mouse (natural protein, UniProt P20108 63-257, looked up)
chain: TPAVTQHAPYFKGTAVVNGEFKELSLDDFKGKYLVLFFYPLDFTFVCPTEIVAFSDKANEFHDVNCEVVAVSVDSHFSHLAWINTPRKNGGLGHMNITLLSDITKQISRDYGVLLESAGIALRGLFIIDPNGVVKHLSVNDLPVGRSVEETLRLVKAFQFVETHGEVCPANWTPESPTIKPSPTASKEYFEKVHQ
notes: Peroxiredoxin 3, mitochondrial, mouse; also called Prdx3; source: endogenous, mouse cerebellum and heart lysates
B2: the “stoichiometry N” value was 2.
